Test results from article doi:10.1101/2023.11.25.568662.

Columns and labels:
[1] = target: 16 unique Boskar4 variants displayed on E. coli; experiment: flow cytometry on cells
[2] = target: bv2 displayed on E. coli (Intimin fusion); experiment: flow cytometry on cells

B1: biotinylated recombinant human G-CSFR (BioGCSFR) (receptor)
chain: ECGHISVSAPIVHLGDPITASCIIKQNCSHLDPEPQILWRLGAELQPGGRQQRLSDGTQESIITLPHLNHTQAFLSCCLNWGNSLQILDQVELRAGYPPAIPHNLSCLMNLTTSSLICQWEPGPETHLPTSFTLKSFKSRGNCQTQGDSILDCVPKDGQSHCCIPRKHLLLYQNMGIWVQAENALGTSMSPQLCLDPMDVVKLEPPMLRTMDPSPEAAPPQAGCLQLCWEPWQPGLHINQKCELRHKPQRGEASWALVGPLPLEALQYELCGLLPATAYTLQIRCIRWPLPGHWSDWSPSLELRTTERAPTVRLDTWWRQRQLDPRTVQLFWKPVPLEEDSGRIQGYVVSWRPSGQAGAILPLCNTTELSCTFHLPSEAQEVALVAYNSAGTSRPTPVVFSESRGPALTRLHAMARDPHSLWVGWEPPNPWPQGYVIEWGLGPPSASNSNKTWRMEQNGRATGFLLKENIRPFQLYEIIVTPLYQDTMGPSQHVYAYSQEMAPSHAPELHLKHIGKTWAQLEWVPEPPELGKSPLTHYTIFWTNAQNQSFSAILNASSRGFVLHGLEPASLYHIHLMAASQAGATNSTVLTLMTLTPEGSELH
modifications: biotin (Biotin-NHS, 1:20 molar ratio G-CSFR:Biotin-NHS)
Work on B1 yielded a fold increase of expression-normalized binding over Boskar4 [1] of 3 fold and a fold increase of expression-normalized binding over Boskar4 [2] of 37 fold.
